Test results: the nanobody polyreactivity screen of Harvey et al. (2022)

Assay: yeast display, Sf9 membrane polyspecificity reagent, FACS + sequencing; frameworks hold sequencing errors
Summary of the method: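 Genes from sorted yeast were amplified by colony PCR, read by MiSeq 2 × 250 sequencing and filtered on CDR length. These cells carried a synthetic nanobody library in Saccharomyces cerevisiae BJ5465 and were sorted by FACS into low and high (top ~1%) gates on anti-HA and streptavidin fluorescence. Polyreactivity is labelled according to the gate of origin.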

Sequence	polyreactivity (PSR sort gate)
QVQLVESRGGLVQAGGSLRLSCAASGSIFWLYAMGLYRQAPGKERELVAAIDSGDSTKYADSVKGRFTISRDNAKNTVYLQMNSLKREDTAVYYCNASRRYHVLAPYDYWGQGTQVTVSS	low polyreactivity
QVQLVESRGGLVQAGGSLRLSCAASGSIFYDNAMGWYRQAPWKEREFVAAISLRTGRTYYADSVKGRFTISRDNAKNTVYLQMNSLKPEDTAVFYCAARGYYGPKYYYWGQGTQVTVSS	high polyreactivity
QVQLVESRGGLVQAGGSLRLSCAASGSTFRRYAMGWYRQAPGKERELVAAITTRGGSTYYADSVKGRFTISRDNAKNTVYLQMNSLKPEDTAVYYCARDYSTYLRTAGDYWGQGTQVTVSS	low polyreactivity
QVQLVESRGGLVQAGGSLRLSCAASGSTFYLNVMGWYIQAPGKERELVAAITYRGGRTSYADSVKGRFTISRDNAKNTVYLQMISLKPEDTAVYYCATPKYYGYYYWGHGTQVTVSS	high polyreactivity
QVQLVESRGGLVQAGGSLRLSCAASGSTFYRYAMAWYRQAPGKERELVARINTGGSTSYADSVKGRFTISRDNAKNTVYLQMNILKPEDTAVYYCAASSRYAVFGRYYYCGQGTQVTVSS	high polyreactivity
QVQLVESRGGLVQAGGSLRLSCAASGYAMGWYRQAPGKERELVAAITSGGSTNYADSVKGRFTISRDNAKNTVYLQMNSLKPVDTAVYYCAAAYSLYGHRYDYWGQGTQVTVSS	high polyreactivity
QVQLVESRGGLVQAGGSLRLSCAASGYIFGYTVMGWYRQAPGTERELVATITRGGDTNYADSVKGGFTISRDNAKNTVYLQMNSLKPEDSSVYYCAAEPVAYYGSSYGYWGQGTQVTVSS	low polyreactivity
QVQLVESRGGLVQAGGSLRLSCAASRSIFNINTMGWYRQAPGKERELVAAISYSGGSTYYADSVKGRFTISRDNAKNTVYLQKNSLKREDTAVYYCNVSPTTSGDGGGYDSWGQGTKVTVSS	low polyreactivity
QVQLVESRGGLVQAGGSLRLSCAASVSIVGIYVMGRYRQAPGKERELVAGISTRGGSTYYADSVKGRFTIARDNAKNTVYLQMNSLKPEDTAVYYCAVRAWDPYTGKSDYWGQGTQVTVSS	low polyreactivity
QVQLVESRGGLVQAGGSLRLSCPASGYIFYRNAMGWYRQEPGKERELVAAITYTGGRTYYPDSVKGRFTISRDNAKNTVYLQMNSLNPEDTAVYYCNADGRVFVVRPYYDYEYWGQGTQVTVSS	low polyreactivity
QVQLVESRGGLVQAGGSLRLTCAASGFTFGFYGMGWYRPAPGKERELVARITWRSGSTYYADSVKGRFTISRDNAKNSVYLKLNSLKPEDTAVYSCAADGFSYYVIRFDYWGQGTQVTVSS	low polyreactivity
QVQLVESRGGLVQAGGSLSLSCAASGRIFYIYDMGWYRQAPGKERELVAAISTSGGSTFYADSVKGRFTISRDNAKNTVYLQMNSLKPEDTAVYYCAARFRYYGSEYDYWGQGTQVSVSS	low polyreactivity
QVQLVESRGGLVQARGSLRLSSAASGRIFSDYAMGCYRQAPGKERDLVATISGGITNYADSVKGRFTISRDNANNTVYLQMNSLKPEDTAVYYCATVDGAYQYTYDYWGEGTQVTVSS	low polyreactivity
QVQLVESRGGLVQEGGSLRLSCAASGRIFSVYAMGSYRQEPGKERELVASISSGGSTYYADSVMWRFTISRDNAKNTVYLQRTSQKAEDTAVYYCAAGYWTTFRSIYDYWGQGTQVTVSS	low polyreactivity
QVQLVESRGRLVQAGGTLRLSCAASGNITSVYAMGWYRQAPGNERELVAAISGSGGSTYYADSVKGRFTISRDNAMNTVYLQMNSLKPEDTAVYYCAKGFQYQGNSYGYWGQGSQVTVSS	low polyreactivity
QVQLVESRGVLVQAGGSLRLSCAASGYIFAPYAMGWYRPAPGKERELVSAISWRGGSTYYADSVKGRFTISRDNAKITVYLQMNSLKPVDTAVYFCAAQGYGSGLSYYRFDFWGLGTQVTVSS	high polyreactivity

Sequence	polyreactivity (PSR sort gate)
QVQLVESRRGLVPAGGSLRLSCARCGITVPAYAMGWYRQAPGKERELVASISRRGGSTYYADSVKGRFTISRDNAKNTVYLQINSLKPVDTAVYYCNADIKQRSDRYDYWGQGTQVTVSS	high polyreactivity
QVQLVESRRGLVQAGGSLRLSCAASGFTFYIYAMGWYRQAPGKERELVAAIIFRGGSTYYADSVKGRFTISRDNAKNTVYLQMNSLKREDTAVYYCAAVPRTYSGYYYWGHGTQVTVSS	high polyreactivity
QVQLVESSGGLVQAGGSLRLSCAASGLTFKRYAMGWYRQAPGKERELVAAINSGGSTNYADSVKGRFTISRDNAKNTVYLQMNSLKPEDTAVYDCAASTSRYYWYALRDYWGQGTQVTVSS	high polyreactivity
QVQLVESSGGLVQAGVSLRLSFAASGRIILNYPIGLYRKAPGKERELVAAITSDGSRSYADSVKGRFTISRDNAKNSVYLQMKSLKPEDTAVYYCANDFFEHSRVSHTYSSSKYDYGGQGTQVTVSS	low polyreactivity
QVQLVESVGGFVQAGGSLRLSCAASGRTFGRYAMGWYRQAPGKEWELVAAITRSGSSTYYADSVKGRFTISRDNAKNTVYLQMNSMKPEDTAVYYCAALYGPFYSTGEYWGQGTQVTVSS	high polyreactivity
QVQLVESVGGLDQAGGSLRFICASSAHTISSYAMGWYRQAPGKERELVAAISVSATRTYYADSVKGRFTISRDNAKNTVYLQMSSLNPEDPAVYYFAARPVQFTYGYWGQGTQVTVSS	high polyreactivity
QVQLVESVGGLDQAGGSLRLSCAASGFTFDINTMGWYRQEPGKERELVAAITYSGGSTYYADSVKGRFTISRDNAKNTVYLQMNSLKPEDTAVYYCATTWYFVASWYVAIYDYWGQGTQVTVSS	low polyreactivity
QVQLVESVGGLDQAGGSLRLSCAASGRIIAWYPMGWYRQSPGKERELVAAISWNGGRTYYADSVKGRFTISRDNAKNTVYLQINSLKPEDTAVYYCAAGKTPQKYGGFNSWGQGTQVTVSS	high polyreactivity
QVQLVESVGGLDQAGGTLRLSCAASGSTFKYNGMGWYRQAPGKERELVAAISWRAGSTYADSVKGRFTISRDNAKNTVYLLMYSLKPEDTEVYYCAARLKYWGDYYYWGQGTQVTVSS	low polyreactivity
QVQLVESVGGLDQAGVSLRLSSAASGSTFGSYVMGWYRQSPGKERELVASISDGGITNYADSVKGRFTISRDNAKNTVYLQMNSLNPEDTAVYYCAAATRPFSDYTTEGYYYWGQGTQVTVSS	low polyreactivity
QVQLVESVGGLFQAGGSLRLSCAASGSIFAYNTMGWYRQAPGKEREFVAAISWRGGSTYYADSVKGHFTISGDNAKNTFYLQMNSLKPEDTAVYYCNARYRNTFYSRRYDYWGQGTQVTVSS	low polyreactivity
QVQLVESVGGLGQAGGSLRLSCAASGYIFRPDAMGWYRQEPGKERELVAVISSGGSTYYADSVKGRFTISRDNAKNTVYLQMNSLKPEDTAVYYCNRTLPSIGGTTYEYWRQGTQVTVSS	low polyreactivity
QVQLVESVGGLVKAGGSLRLSCAASGFIFYRYTMGWYRQDPGKERELVAGISSRGTRTYYADSVKGRFTISRDNAKNTVYLQMNSLKPEDTAVYYCAAVLTQPKKVNYWGQGTQVTVSS	high polyreactivity
QVQLVESVGGLVQAGASHRLSCAASGLNFFKYTMGWYIQAPGKERELVAAISRRGGSTYYADSVKGRFTISRDNAKNTVYLQMNSLKPDDTAVYYCNKRLGTGYYYGYDYWGQGTQVTGSS	high polyreactivity
QVQLVESVGGLVQAGASLRLSCAASGGTFPVYAMGWYRQAPGKEREMVAAISYSGVTTYYADSVKGRFTISRDNAKNTVYLQMNSLKPDDTAVYYCNADWRRWYIFSYDYWGQGTLVTVSS	low polyreactivity
QVQLVESVGGLVQAGASLRLSCAASGITFVYYALGWYRQAPGKERELVAAITSTGGSTYYADSVKGRFTISRDNAKNTVYLQMNSLKPEDTSVYYCAAVPRGTQGAMDYWGQGTQVTVSS	low polyreactivity
